This data set concerns the molecule itself. The data set is described as follows: crystal structure.

B1: Pyrococcus furiosus Cmr4 (natural protein, UniProt Q8U1S9 1-295, looked up)
chain: MKAYLVGLYTLTPTHPGSGTELGVVDQPIQRERHTGFPVIWGQSLKGVLRSYLKLVEKVDEEKINKIFGPPTEKAHEQAGLISVGDAKILFFPVRSLKGVYAYVTSPLVLNRFKRDLELAGVKNFQTEIPELTDTAIASEEITVDNKVILEEFAILIQKDDKGILESVVKAIEQAFGNEMAEKIKGRIAIIPDDVFRDLVELSTEIVARIRINAETGTVETGGLWYEEYIPSDTLFYSLILVTPRAKDNDMALIKEVLGKINGKYLQIGGNETVGKGFVKVTLKEVTNNGGTHAK
On to B1, for which the binding result was “binds”.

The values are drawn from PMC4333402 (Nucleic Acids Research, 2014).
